Series [1] in a line: Physicochemical properties of the liquid test formulations.
Series [2] is described as follows: Aerosol droplet size (mass median diameter, geometric standard deviation) by laser diffraction. To be noted: aerosol generator of Example 5 (LC Sprint Junior-like + PARI SINUS); Example 9. Format: physicochemical.
The conditions of series [3]: at 25° C.; cited from earlier work.

For DNAse, in series [1], the “dynamic viscosity of the solution” value was 0.98 mPa·s, the osmolality of the solution came to 285 mOsm/kg, the “pH of the solution” value was determined as 6.5 and the “surface tension of the solution” value is listed as 72.1 mN/m. Moreover, the mass median diameter of the aerosol in series [2] stood at 3.19 µm.

As for `OC[C@H]1O[C@@H]2O[C@H]3[C@H](O)[C@@H](O)[C@@H](O[C@H]4[C@H](O)[C@@H](O)[C@@H](O[C@H]5[C@H](O)[C@@H](O)[C@@H](O[C@H]6[C@H](O)[C@@H](O)[C@@H](O[C@H]7[C@H](O)[C@@H](O)[C@@H](O[C@H]1[C@H](O)[C@H]2O)O[C@@H]7CO)O[C@@H]6CO)O[C@@H]5CO)O[C@@H]4CO)O[C@@H]3CO` [α-cyclodextrin], in series [3], the aqueous solubility entry is “about 145 mg/mL”.

The values are drawn from patent US20070202051A1, “Aerosols for sinunasal drug delivery” (Pari GmbH, priority 2006, published 2007).
